# Experimental data published in article PMC8376909, “Identification of a transcription factor, PunR, that regulates the purine and purine nucleoside transporter punC in E. coli”.
# B1: PunR-binding site 36 bp upstream of punC (dsDNA)
# DNA 1: TGGGGACTGGTTTCAAAAATTTTGCAGGCAGAGGGG
# DNA 2: CCCCTCTGCCTGCAAAATTTTTGAAACCAGTCCCCA
# B2: GguR binding site 26 bp (negative control) (dsDNA)
# DNA 1: ACCCCCAGTCATCAGACAACCTCCCC
# DNA 2: GGGGAGGTTGTCTGATGACTGGGGGT
# Legend:
# [1] = molecular target: T1, PunR (YdhB), LysR-family regulator (Escherichia coli K-12 (ASKA collection …, UniProt P0ACR2 1-310)); experiment: fluorescence polarization; 0.35 mM adenine; 10 mM MgSO4; FP: 20 mM Tris-HCl pH 7.5, 0.1 M NaCl, 0.5 mM EDTA, 10 mM MgSO4, 2 mM DTT, 5 ug/ml herring sperm DNA, 10 nM DNA, 30 C 1 h; EMSA: PBS pH 8, 10 mM MgSO4, 2 mM DTT, 0.25 mM adenine (Methods; 1 or 10 mM in Results and Fig. S3), 100 nM DNA, 30 C 1 h then 25 C 1 h, 6% native PAGE Tris-glycine with 0.25 mM adenine; conditions: protein: recombinant; tags: N-terminal His6; chain copies: 4; label: 5' 6-carboxyfluorescein on printed strand; blunt
# T1 sequence: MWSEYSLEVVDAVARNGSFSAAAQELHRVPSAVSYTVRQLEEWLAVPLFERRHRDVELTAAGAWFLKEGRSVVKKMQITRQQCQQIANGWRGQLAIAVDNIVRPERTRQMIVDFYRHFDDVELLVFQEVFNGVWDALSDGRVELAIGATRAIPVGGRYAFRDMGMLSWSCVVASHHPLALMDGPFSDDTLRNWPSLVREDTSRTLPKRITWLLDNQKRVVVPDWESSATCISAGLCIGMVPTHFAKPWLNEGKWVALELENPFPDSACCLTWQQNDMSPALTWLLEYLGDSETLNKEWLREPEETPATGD
# [2] = molecular target: T1, PunR (YdhB), LysR-family regulator; experiment: EMSA; 1 mM adenine; PunR up to 1.5 uM; 10 mM MgSO4; FP: 20 mM Tris-HCl pH 7.5, 0.1 M NaCl, 0.5 mM EDTA, 10 mM MgSO4, 2 mM DTT, 5 ug/ml herring sperm DNA, 10 nM DNA, 30 C 1 h; EMSA: PBS pH 8, 10 mM MgSO4, 2 mM DTT, 0.25 mM adenine (Methods; 1 or 10 mM in Results and Fig. S3), 100 nM DNA, 30 C 1 h then 25 C 1 h, 6% native PAGE Tris-glycine with 0.25 mM adenine; conditions: protein: recombinant; tags: N-terminal His6; chain copies: 4; label: 5' 6-carboxyfluorescein on printed strand; blunt
Binder,Kd [1] [nM],binding result [2]
B1,27,
B2,,no binding
